According to the NTF2 design screens of Basanta et al. (2020):

Test: protease stability score; higher = more stable; yeast display proteolysis, trypsin and chymotrypsin;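 further: log10 excess protease needed over predicted unfolded state with 0 meaning unfolded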

Row | Sequence | protease stability score
1 | DTEDNHKLREVIRTNNPQEIREMMDPNVKVRYGNKEIEGRDQAVKHEQDLQHRADRVKIEDMRVHGDKLVVVWSINIDGSEFRFSFEARIHNGKVKFAQIQFTDPDLERKFDDMLQ | 0.324
2 | DTEELQRLLTLVETNDFETLAKQADENARADVGDHKITGREDITRWAKQLSDRIDHVEVRSLDIQGDKAVAVLQFHVNGRTMVFRVHISAHNGKVKHFQVKVRDENARKQLKRVVD | 0.147
3 | DTEERAEDFMHIMQNAATHGDPNIQRHLADKHVRVEVGDKTVSGREEHKTEFDKRVKQYDSISVNMRKMEIDGDKARFNVEERYNTNGRNQHHDVKQQAIVQGDKVHLDRVDNK | -0.603
4 | DTEEREKVMEIMRTGDPDKLHKLMDKNVKVVVGDKRYHGREMVEELVQKLKSQIDHIEVKDYTIQGDNLILNAVINVDGRSVELVIFVRVHNGRIKHMNFNVTDEEEQKKLDENLS | 1.34
5 | DTEKLDRFAHEFVKVLREGDEDRMRKLADEDASMNIGDKEYRGREEVAKALREYRERYDHLQVDSIDVQGEHISVKAQVRIDGRRRRARFEVRMHNGRIKEVNFDPDLLKEQHT | 0.206
6 | DTEKTTELKKMFDHEQEGNENHLMRMFDPNATVQVGDKRIHGREDLQRWLDRFRKNQRVNVRSITVDVQGERFRVEVEADAKHNGRPNQMHRSMEVEFHNGRIKRADFQTDG | 0.124
7 | DTELKDQIKRFLSERNSGNPQKMVEQMDPNANMSVGDKSVRGREQVSEQAEREKRELHYRVRSVDISVNGDKVKVKINVEREHNGRPFTMTLDLTIRAHNGRLTRVEVSLSEDDKREIKR | 0.521
8 | DTELTHELSHRIKDNNWEDLSKNADENVEFRVGNKEYHGKEEFQHLQENLKRQIDDVKIHSLTAQGDHLEADVVYNVNGRDLRFTFHMTVRNGKIKEMNASFRDESQVNTMLTVLN | -0.238
9 | DTENEKLQRRFMKALKTNDPHRAREMADENAKVQVGDKRIHGMQTVVEDLEREWREQRNDVKVRSVSNEGNKVNMDATMKVEHNGKPKHFNVVYRATVHNGRIHELRVERDG | 0.088
10 | DTENVKKATDYVHALNTGDEHRVKELMDPNARIRYGDKEVKGHDEIAKTLKTERDQSRVEFDIKRVEHQGNKVSIDLNFRKNQNGQPRSTKVNITVVFHNGKIKEINIQTDG | 1.59
11 | DTEQLKVFKEFVDAHRHNNPEELKKQMDKDVHFRVGNKQIHGREKAAHYWETIMHEIRVEWKSIVMKDSNGKAKAKFRFVENVNGKPQENTYDLEFSARNGRINSITMRFDEDQQRHHKK | 0.345
12 | DTERNAKEAVTRLKKVFTHNDPDKIASMFDENAHIEVGDKRYHGHEEVKRWADDMRNQYDHWDADVRSIDVHGDKVHVEAVITAERNGKTLERTFVVIFDRDNGQLRIHELRDQ | 0.926
13 | DTESAQTFVDVLEEGDFDTLVNLMDKNARLQVGDTTFNGRENARHFFELMKDKVDHLKIDHYEIHGNHVNIDMKLNVNGKTVDVVVYVKFHNGRIQHLRIEARDPEDMRTFKENMR | 1.35
14 | DTESLKKVEDVVNNNDKKKHERLLDKDVRIVVGDKEVRGREQAARDYKRFVNHADHIEIKRVRSNGDKLFIDRVVNFNGQTVHFVVTYVVKNGSIQEVSVKVTDKEHLKLYKEALR | 0.196
15 | DTEVIHVLKRIMHAINEGDESQVRKNADPNVKVRVGNKSIHGREQLVEQMRRDVEEIRLEYKSFDAKDSDGHARARVKYQNEFNGKPQEKDDRATAVAHNGHLKSIRWRVPEDDLRDQDT | -0.014
16 | DTEVQQRVEHYLRLREYNSPEHLIEMVDPNAKIEIGNKEFHGMENYAHTMRKRVEEWRLEIKHISVTIRNGRVVARIDQEVDIDGNPVRYTYKVVYDAHNGNIKHIKNDVDPRQQQQQHK | 0.176
17 | DTHAVEVWRRVLRAKETGDEKTLEKNFDPNARFQVGDKTLHGMEQQVTENKRERDDLRVHVEIKEVKDQGDKAFVDMVMTAEVNGQPYRIRVEVVAVVRNGKIKELVINMDPRQQEQLDS | 0.28
18 | DTHDEKHVAQNVVDALRRNDPDQLRRMMDPNVHFEVGDKTIHGREDAARQLKEIKKNVDHFQVDDVTMSNGRVHAIIRVEINGQERRNVVQADVKNGHVKFQRIKDQ | -0.084
19 | DTHDVKRILDELKTNDEDMNRHLVDPNAKLRIGDKEIHGREELTEFYHRFHKQVDSQRIKDVRVHGNRFRVEFEAVFNGQTVEASYEATFHNGKATSLRYTATSNEELKNLQKVMD | 0.147
20 | DTHKLREHARSMVEAMEDGDPQHLAKLMDENAKVTVGDKDVHGEEQAKRWAREWQKRFDHVEVDDLKVDNGRIRVKFHAQVNGREIFVIVKVEVRNGRIRSLSLEVRDEHVEKRLQD | 0.909
21 | DTHNFKKYMELLKALETGDERTARKMADPNAEFVIGDKEWHGMEEFAQTRVEQFKEQSIEIKILDYKDKNGQVHIRYRIRVNRNGKPDEKEVVVRIENHNGRIHHVEYRDTG | 0.09
22 | DTKERQNRAEEINKNFKEGNPHEYMSMLDKNASAQVGDKQVHGRERMSKRIEDIVRRADKLTIETFHVSGDKVEIVVQLIVNGTRVRMEVEIKFENGHAKHVEFNPEQDKQLKQ | 0.421
23 | DTQALKHARSVLEDNDWDKLQKLADKDARATVGDTTYHGREDIQTWLKRAEETVDHVNIKSISIDEDSISVRFVMNVNGKTVEMVITIQLHNGRIKFLRIQARSEEQEKTIHEVVD | -0.051
24 | DTQEKLKHWWKHVQENIKTGDEDRLHEMVDPNASVQVGDKELHGREKIATTYVELMSRVDHVRIQITELEVHGNDFDLTFNYEADVNGRKEHDHYRVVLQEHNGQLRLVQMSEG | 0.747
25 | DTQKIVDDIAHEVVEVLKTGDPRKVVKLVDENARLQVGDKIVRGREDVKKRAEKENSRVDHREARVQEVTMHNGDVTIRFRVKDTHNGRSDSREYTIHLQEHDGKVFIQNMEDR | -0.261

Row | Sequence | protease stability score
26 | DTRANEIWQDIVQALQTGDHERAIRLADPNVHFKVGDREVHGMTQFAHKQAQRHREARIELRVHSVRDRGDHVTVHYEMVVNVDGNPVKNTVTIYIVMRNGKLRSVEVSVDPRDVKRMRS | 0.108
27 | DTRARDIARRFWEAIRKNDPDKIKNQADENADFKVGDKTIHGMDHIIHHWEKVNKHARFQWERMEIKDSPNHVDVKYQFIVDVDGEPKTINATAQFQFHNGRIKNYEIQVDPEQFKEITK | 0.523
28 | DTRAREVLEKFLKALNKGDPDKMKRQADPNAKFHIGDKQVHGMDQMKEQIRTNQRHMKIDVQVQEVQVRNGRVVARMEVRQTHNGQPTSDILVVEAEVKNGRIKSAHWEKSS | -0.414
29 | DTRDDERFKEFLKQIETNDPDKLVRMFDPNARIKVGDNELRGREQIHTFWKHVLDEQRVEYTDVKADFNGDKIEVDIRMVNQTNGEPEESRNKVEVKWHNGRLIDVIFRSDG | 0.113
30 | DTRKVQEMAKQFVQAMKDNDRTTLEKLADEDARIRVGEKELHGRDQVATMVAHMAKNIDHIRVKKLSVDENHVNLVFEVEHNGRRVRIILRITARNGRIKHIQVDPDRVRELEG | 1.01
31 | DTRSVMKDILKKIQENLKTGDPQHAADLFDPNVSVRVGDKELRGREQVRKKMKEERDRVDHVDMRIHDMKVSNGRVVVHYTWTVTVNGRKETNRAQLHADNEGDKALVTEVNVK | -0.106
32 | DTRTDLRVAEKAAKAFHTNDPEKFKKQADPNAKAQYGDKTVHGMEDIVTRLKKFKDRVDHLRLNDIKSTGEKVDLNIQINVNGKNVEAKIDFHVRNGRLKTMKVDPNAVDAYRS | -0.19
33 | DTRVARLVQEIMENVKKGSKEHLKQMVDPNVKIRVGDKTFHGREDFVTHLMDERKEARVDYHLKDVKDEGDKAFADVVQHVDKNGQPRNRHFIIDARAENGRLKEMRIENTK | -0.3
34 | DTSDNKRAKELLDVLRTGDKEDFKNLVDENVRVVVGDKEVHGRDEIAEDISRKKKEMRYTFKVEDLQDHNGHVKVDMRQSSEHNGSPHHSDAKVTVNFENGKVHDVVLRDDG | -0.04
35 | DTTTEIQRLVHDFVRKIKTGDPKEFERLVDEDARVRVGDKTVSGREEAVSHMVETAQRADTMDVNITSVSIHNGHAKVEFHLKYDHNGKDVEQTIIFVMVKRNGHFRLKEMVQK | 1.26
36 | EDDAITRWEELERQQETGNEEKAQEMVDPNVKMRYGDDNFHGREEYRKLVHKIRKNWREDVKDVRFEDHGEEIKVEYRVHQDINGKPVNADVTAEAQMSNGRLKKFVLRFSETQEKEIES | 0.351
37 | EDDRQRKFAKHANKVMETGDPREMEKLADENVRVVVGEKDVHGRERAQEWAKELSDRVDQIRIKDVDVDGNKVVIDLIVDHNGRQSTVTVDIEFHNGRAKSVTMHEK | -0.244
38 | EDDVKRKQETWLKAVEDNNPEEAEEQADKHVQVVIGDKRIRGMEEMAHFIEHERRQADIRIQDYRISARGDKVRANISMHFNVNGTPEQASIKIQVTLSNGKIRKMVFRFDDQEFRRIQS | 1.1
39 | EDEEAEEAIRIWQRNDPDQLNRMVDKDVSIHYGDKSYHGRHEVKKIWENYVKQVDRISFRHITRTGEHVSFEVEAVVNGKHVEFTASMEMKNGRAKDITFKATNEEDDKELQKNLE | 0.28
40 | EDEEAEKLSEIQRTGDEERIARNADPNVRVNVGDKRVHGREHLVSIAKRLSKNVDSLEIKHVEIQGERMVVRFVMQVNGKHIHAEMEIQMSNGRITSRNQRYTSEDVEQNWRDAVD | 0.255
41 | EDEELRKMVKQWEKGDPDQLLRYADEDAEFKVGDQQFHGREQLKHYIKRLKHRVDHFQIRKVTREGDRVRIDAFQVVNGRKIVYVFVLEVKNGRLKRLTMDFRDEKDERHFRTMLK | 0.902
42 | EDELLHILKEFIQAVNSGDSDKLRELMDPNVKAEYGDKEIHGREEIARQWRQIRHEIKFSWKHLHFEVKGDKLRVDFTVVMDVNGKPKHYRAVLYMKLKNGRITTLHVKMPEEEAKELNK | 0.363
43 | EDELRDQFKRFMNAWERGDPDKLRSLVDPNAEVVVGDKVYHGMTHAADEIVRHMKESRYTIKIESINVNGDNIEVTARVTADHNGKPQDASFHASARLENGHVTSMEVQIRE | 0.916
44 | EDELRTMVDQVMEAQKTGDFDKFIEQFDPNAHRRVGDKEVEGQEEMRHEQKRRDDNIRVDYNRMSVQVSNGVAKLTVHLNAHVNGKPVRLTIDIVFHARNGRFQSMQVDFTREQEKRKRS | -0.213
45 | EDEMRKLAHKVMTAHQTGDPDRIARLMDPNVQVKVGDKTIHGKHQLKRKLTKDLKEMRVHIKSVKFSVQGDKVEVRANLVSRHNGQPHESTVDVRITARGDKLKHLNNQETQ | -0.263
46 | EDENMETMKDLLRAWQEGDEDRAQENADKDVTVEYGDRSFHGRSQLHRLVKERREKMRVQIKDVRFDISGDKIKIDLTYTKDHNGRPETRRVRIIARVNNGKVKFVRLDEHG | 0.652
47 | EDENRKRIEHFLEVKEHGNPDEAKRLADPNVHLKVGDQTVHGRSQLSKILEKEVKEIRFSMQIDSYDDRPGRIKMSATMVLNINGQPIKVTFDAEYVLDNGRISHVEIRMDPTRLHEIKK | 0.64
48 | EDENRSNIEDMIRAWNQNNPDEWRELADPNVKVQIGEKSIRGREEIAKDLKQMHKEIEVHFNLKRVRVQGDKAEVEMEFSNNHNGKPRSDNVVYDVLVDNGRIKSVKQNQVS | -0.141
49 | EDENTRKFVQYLKILKDGNEQELKKDMDPNAHIKVGDKTLSGMDKITDDVRRKLEEMTVDFTTVSAKAENGRLDVNMSLNNEVNGRPRSDDVTIEVRIHNGKFDHIIYHMDPNRLKEVER | -0.104
50 | EDEVLKELLEAVRHNDPDKIKELIDPNARFRVGDKSLHGMEEAAEQYARMMKRVDHIQIDSMSAHGDTFTVDQRFHFDGRTLSVTIRIRIHNGRIEELVIEVRSEEDKKNLDNLLS | -0.097
